These results are taken from paper PMC8752837, “Structural basis of BAK activation in mitochondrial apoptosis initiation” (Nature Communications, 2022).

In the assay the target is T1, GST-BAK (human).
T1 chain: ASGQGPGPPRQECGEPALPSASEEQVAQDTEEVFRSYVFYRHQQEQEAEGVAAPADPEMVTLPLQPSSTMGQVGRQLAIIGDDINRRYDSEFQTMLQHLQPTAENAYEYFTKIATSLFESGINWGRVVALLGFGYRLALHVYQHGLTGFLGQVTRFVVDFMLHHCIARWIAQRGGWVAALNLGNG
The assay can be described thus: fluorescence polarisation; competitive: displacement of 10 nM BID BH3 SAHB-F from 1 µM GST-BAK by peptides at 500-0.2 µM; 50 mM Tris-HCl pH 7.5, 50 mM KCl, 0.1 mg/mL BSA, 2 mM DTT, 0.005% Tween-20; 60 min at RT. As to conditions: both partners purified. For orientation: In fluorescence polarisation assays a small probe gives low polarisation when free and higher when bound to something large.

By IC50 is commonly meant the concentration that inhibits the measured activity by half. High values mean lower potency, low ones higher potency. Ac-EDWIRNIARHLAQVGDSMDRSI-NH2 [W(0') BID BH3 peptide] returned an IC50 of 27.4 ± 16.4 µM.
